Reference: patent US20210355225A1 (OSE IMMUNOTHERAPEUTICS, published 2021)
Read-outs that look alike come from different tables or passages of the source.

Assays:
[1] = biological target: T1, Recombinant hPD1-His (Sino Biologicals, reference […]-H08H) (human, UniProt Q15116 25-167); assay: ELISA, immobilized recombinant hPD1, purified antibody from HEK cells; given as ED50
T1 construct: Bought reagent; also called human PD1 recombinant protein; PD-1 recombinant protein; not shown: histidine tail
Procedure: (§1) Detection was performed with a donkey anti-human antibody coupled to peroxidase and revelation was performed by colorimetry at 450 nm using TMB substrate. […] B: Assessment of antibody binding by cytofluorometry on CD3/CD28 stimulated human PBMCs. […] Data are represented by Mean Fluorescence Intensity (MFI) staining in PD1+ positive CD3+ T cell population. C: Assessment of antibody binding by cytofluorometry on CD3/CD28 stimulated T cells. […] Data are represented by Mean Fluorescence Intensity (MFI) staining in PD1+ positive CD3+ T cell population

[2] = biological target: T2, biotinylated Human PD1 (AcroBiosystems, reference EP-101) (human, UniProt Q15116 25-167, biotinylated); assay: competition ELISA, immobilized hPDL1 as competitor, biotinylated PD1 0.66 µg/ml mixed with antibody
T2 construct: also called Biotin-PD-1Fc; not shown: Fc part implied by the name 'Biotin-PD-1Fc'
T2 sequence (Q15116 25-167): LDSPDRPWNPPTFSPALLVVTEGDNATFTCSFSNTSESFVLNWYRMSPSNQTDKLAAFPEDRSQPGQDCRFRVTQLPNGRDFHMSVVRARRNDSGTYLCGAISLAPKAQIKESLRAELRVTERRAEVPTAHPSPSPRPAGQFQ

[3] = biological target: T1, Recombinant hPD1-His (Sino Biologicals, …); assay: Blitz (BLI), hPD1-His on Ni-NTA biosensor, antibody 20 µg/mL in solution (avidity)
Procedure: The binding affinity/avidity was measured using Blitz method (Forté Bio; USA; reference C22-2 No 61010-1). […] Then, anti-PD1 antibodies were associated with 20 μg/mL for 120 seconds. The dissociation of anti-PD1 antibody was made in kinetics buffer for 120 seconds. Analysis data was made with the Blitz pro 1.2 software, which calculated association constant (ka) and dissociation constant (kd) and determined the affinity constant KD […].

[4] = biological target: T3, human PD-1 expressed on the cell surface (human, UniProt Q15116 25-288); assay: flow cytometry on CD3/CD28 stimulated human T cells (PD1+ CD3+); given as ED50
T3 construct: whole, on cells; PD-1 on CD3/CD28 stimulated human T cells (flow cytometry), on Promega Jurkat effector cells and on human M1 macrophages (functional assays); also called PD1+ positive CD3+ T cell population; PD-1+ T cells
T3 sequence (Q15116 25-288): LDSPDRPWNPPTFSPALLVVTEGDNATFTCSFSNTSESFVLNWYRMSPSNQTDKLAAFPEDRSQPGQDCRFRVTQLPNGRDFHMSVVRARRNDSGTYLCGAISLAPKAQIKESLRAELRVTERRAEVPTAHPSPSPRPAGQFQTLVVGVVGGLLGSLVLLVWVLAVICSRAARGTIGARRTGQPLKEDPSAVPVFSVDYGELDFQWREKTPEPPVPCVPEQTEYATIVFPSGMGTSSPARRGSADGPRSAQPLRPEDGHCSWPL
Procedure: as §1

[5] = biological target: chimeric PD-1 receptor fused to Beta-gal fragment (ED) on Jurkat T cells (DiscoverX PathHunter Jurkat PD-1 … (UniProt Q15116 25-288)); assay: cell-based or functional assay
Chain of chimeric PD-1 receptor fused to Beta-gal fragment (ED) on Jurkat T cells (DiscoverX PathHunter Jurkat PD-1 … (Q15116 25-288, change not shown): as the sequence (Q15116 25-288) above

[6] = biological target: T3, human PD-1 expressed on the cell surface; assay: cell-based or functional assay
[7] = biological target: T1, Recombinant hPD1-His (Sino Biologicals, …); assay: Biacore SPR, antibody captured on anti-human Fc, hPD1-His as analyte
Procedure: The affinity measurement was performed by Biacore in PP21 platform (Inserm U1194, Université de Montpellier). Anti-human Fc antibody (GEHealthcare) was immobilized at 25 μg/ml in acetate buffer pH5.

[8] = biological target: T1, Recombinant hPD1-His (Sino Biologicals, …); assay: Biacore competition with PDL1 for PD1, relative response in % of no Ab
[9] = biological target: T3, human PD-1 expressed on the cell surface; assay: Flow cytometry on CD3/CD28 stimulated human PBMCs, PE-labelled mouse anti-human Fc mAb, MFI in the PD1+ CD3+ T cell population
Procedure: as §1

[10] = biological target: T1, Recombinant hPD1-His (Sino Biologicals, …); assay: ELISA on immobilised recombinant hPD1, DO 450 nm
[11] = biological target: T1, Recombinant hPD1-His (Sino Biologicals, …); assay: ELISA on immobilised recombinant hPD1, DO 450 nm; remark: listed apart in the source

Row | EC50 [1] [µg/mL] | IC50 [2] [µg/mL] | Kd [3] [nM] | koff [3] [s⁻¹] | kon [3] [M⁻¹ s⁻¹] | EC50 [4] [nM] | IC50 of PD-1/pSHP-1 signaling, DiscoverX PathHunter Jurkat PD-1 (SHP1) assay, chemiluminescence [5] [ng/mL] | ED50 of NFAT luciferase luminescence, Promega PD-1/PD-L1 bioassay [6] [µg/mL] | Kd [7] [nM] | koff [7] [s⁻¹] | kon [7] [M⁻¹ s⁻¹] | binding result [8] | EC50 (read off the curve) [9] [µg/mL] | EC50 (read off the curve) [10] [µg/mL] | EC50 (read off the curve) [11] [µg/mL] | Binder
1 | 0.0127 | 0.196 | 1.34 | 0.000429 | 319000 | 0.278 | 12.7 | 0.41 |  |  |  |  |  |  |  | HCLD (antibody, human IgG4 S228P, kappa, V domains shown, also called humanized anti-PD1 variant HC heavy chain + LD light chain) VH: QIQLVQSGSELKKPGASVKVSCKASGYTFTHYAMNWVRQAPGQGLEWMGWINTNTGEPTYAQGFTGRFVFSLDTSVSTAYLQISSLKAEDTAVYYCAREREPGMDSWGQGTLVTVSS VL: DVVMTQSPLSLPVTLGQPASISCRSSQSLVHANTNTYLEWYQQRPGQSPRLLIYKVSNRFSGVPDRFSGSGSGTDFTLKISRVEAEDVGVYYCFQGTHVPNTFGQGTKLEIKR
2 | 0.0114 | 0.205 | 0.75 | 0.000262 | 351000 | 0.187 | 11.4 | 0.69 | 4.1 | ~0.00133 | 324000 |  |  |  |  | HKLD (antibody, human IgG4 S228P, kappa, V domains shown, also called humanized anti-PD1 variant HK heavy chain + LD light chain; humanized anti PD-1 (HKLD variant)) VH: QIQLVQSGSELKKPGASVKVSCKASGYTFTHYAMNWVRQAPGQGLEWMGWINTNTGEPTYAQGFTGRFVFSLDTSVSTAYLQISSLKAEDTAVYYCAREREPGMDNWGQGTLVTVSS VL: DVVMTQSPLSLPVTLGQPASISCRSSQSLVHANTNTYLEWYQQRPGQSPRLLIYKVSNRFSGVPDRFSGSGSGTDFTLKISRVEAEDVGVYYCFQGTHVPNTFGQGTKLEIKR
3 | 0.0115 | 0.175 | 0.93 | 0.000427 | 458000 | 0.118 | 11.6 | 0.4 |  |  |  |  |  |  |  | HILD (antibody, human IgG4 S228P, kappa, V domains shown, also called humanized anti-PD1 variant HI heavy chain + LD light chain) VH: QIQLVQSGSELKKPGASVKVSCKASGYTFTHYAMNWVRQAPGQGLEWMGWINTNTGEPTYAQGFTGRFVFSLDTSVSTAYLQISSLKAEDTAVYYCAREREPGMDAWGQGTLVTVSS VL: DVVMTQSPLSLPVTLGQPASISCRSSQSLVHANTNTYLEWYQQRPGQSPRLLIYKVSNRFSGVPDRFSGSGSGTDFTLKISRVEAEDVGVYYCFQGTHVPNTFGQGTKLEIKR
4 | 0.0134 | 0.194 | 1.05 | 0.000432 | 410000 | 0.241 | 13.4 | 0.9 |  |  |  |  |  |  |  | HJLD (antibody, human IgG4 S228P, kappa, V domains shown, also called humanized anti-PD1 variant HJ heavy chain + LD light chain) VH: QIQLVQSGSELKKPGASVKVSCKASGYTFTHYAMNWVRQAPGQGLEWMGWINTNTGEPTYAQGFTGRFVFSLDTSVSTAYLQISSLKAEDTAVYYCAREREPGMDYWGQGTLVTVSS VL: DVVMTQSPLSLPVTLGQPASISCRSSQSLVHANTNTYLEWYQQRPGQSPRLLIYKVSNRFSGVPDRFSGSGSGTDFTLKISRVEAEDVGVYYCFQGTHVPNTFGQGTKLEIKR
5 |  |  |  |  |  |  |  |  |  |  |  | binds |  |  |  | HCLC (antibody, human IgG4 S228P, kappa, V domains shown, also called humanized anti-PD1 variant HC heavy chain + LC light chain) VH: QIQLVQSGSELKKPGASVKVSCKASGYTFTHYAMNWVRQAPGQGLEWMGWINTNTGEPTYAQGFTGRFVFSLDTSVSTAYLQISSLKAEDTAVYYCAREREPGMDSWGQGTLVTVSS VL: DVVMTQSPLSLPVTLGQPASISCRSSQSLVHANGNTYLEWYQQRPGQSPRLLIYKVSNRFSGVPDRFSGSGSGTDFTLKISRVEAEDVGVYYCFQGTHVPNTFGQGTKLEIKR
6 |  |  |  |  |  |  |  |  |  |  |  |  | ~0.3 |  |  | HELC (antibody, human IgG4 S228P, kappa, V domains shown, also called humanized anti-PD1 variant HE heavy chain + LC light chain) VH: QIQLVQSGSELKKPGASVKVSCKASGYTFTHYAMNWVRQAPGQGLEWMGWINTNTGEPTYAQGFTGRFVFSLDTSVSTAYLQISSLKAEDTAVYYCAREREPGMDTWGQGTLVTVSS VL: DVVMTQSPLSLPVTLGQPASISCRSSQSLVHANGNTYLEWYQQRPGQSPRLLIYKVSNRFSGVPDRFSGSGSGTDFTLKISRVEAEDVGVYYCFQGTHVPNTFGQGTKLEIKR
7 | 0.0147 | 0.178 | 1.28 | 0.000352 | 274000 | 1.54 | 14.8 | 1.16 |  |  |  |  |  |  |  | HGLD (antibody, human IgG4 S228P, kappa, V domains shown, also called humanized anti-PD1 variant HG heavy chain + LD light chain) VH: QIQLVQSGSELKKPGASVKVSCKASGYTFTHYAMNWVRQAPGQGLEWMGWINTNTGEPTYAQGFTGRFVFSLDTSVSTAYLQISSLKAEDTAVYYCAREREPGMESWGQGTLVTVSS VL: DVVMTQSPLSLPVTLGQPASISCRSSQSLVHANTNTYLEWYQQRPGQSPRLLIYKVSNRFSGVPDRFSGSGSGTDFTLKISRVEAEDVGVYYCFQGTHVPNTFGQGTKLEIKR
8 | 0.0192 | 0.196 | 1.14 | 0.000507 | 443000 | 0.402 | 19.2 | 0.46 |  |  |  |  | ~0.3 | ~0.009 | ~0.01 | HELD (antibody, human IgG4 S228P, kappa, V domains shown, also called humanized anti-PD1 variant HE heavy chain + LD light chain; HELD(V94)) VH: QIQLVQSGSELKKPGASVKVSCKASGYTFTHYAMNWVRQAPGQGLEWMGWINTNTGEPTYAQGFTGRFVFSLDTSVSTAYLQISSLKAEDTAVYYCAREREPGMDTWGQGTLVTVSS VL: DVVMTQSPLSLPVTLGQPASISCRSSQSLVHANTNTYLEWYQQRPGQSPRLLIYKVSNRFSGVPDRFSGSGSGTDFTLKISRVEAEDVGVYYCFQGTHVPNTFGQGTKLEIKR
9 | 0.0166 | 0.156 | 1.25 | 0.000554 | 441000 | 0.223 | 16.6 | 0.89 |  |  |  |  |  |  |  | HLLD (antibody, human IgG4 S228P, kappa, V domains shown, also called humanized anti-PD1 variant HL heavy chain + LD light chain) VH: QIQLVQSGSELKKPGASVKVSCKASGYTFTHYAMNWVRQAPGQGLEWMGWINTNTGEPTYAQGFTGRFVFSLDTSVSTAYLQISSLKAEDTAVYYCAREREPGMDEWGQGTLVTVSS VL: DVVMTQSPLSLPVTLGQPASISCRSSQSLVHANTNTYLEWYQQRPGQSPRLLIYKVSNRFSGVPDRFSGSGSGTDFTLKISRVEAEDVGVYYCFQGTHVPNTFGQGTKLEIKR
10 | 0.0164 | 0.201 | 0.84 | 0.000343 | 405000 | 0.133 | 16.9 | 0.54 |  |  |  |  |  |  |  | HHLD (antibody, human IgG4 S228P, kappa, V domains shown, also called humanized anti-PD1 variant HH heavy chain + LD light chain) VH: QIQLVQSGSELKKPGASVKVSCKASGYTFTHYAMNWVRQAPGQGLEWMGWINTNTGEPTYAQGFTGRFVFSLDTSVSTAYLQISSLKAEDTAVYYCAREREPGMDHWGQGTLVTVSS VL: DVVMTQSPLSLPVTLGQPASISCRSSQSLVHANTNTYLEWYQQRPGQSPRLLIYKVSNRFSGVPDRFSGSGSGTDFTLKISRVEAEDVGVYYCFQGTHVPNTFGQGTKLEIKR
